Here are results for three molecules from patent publication US20200308286A1, “METHODS, COMPOSITIONS, AND KITS FOR TREATMENT OF CANCER” (Fusion Pharmaceuticals, Inc., priority 2017, published 2020).

Data set [1] deals with human UM-UC-1 bladder cancer cell line. Put plainly: Conditional survival study (tumor growth delay) in UM-UC-1 bladder cancer xenograft mice. The data set is classed as in vivo. Particulars: administered as single agent. Here is the method:
Efficacy was assessed using tumor growth delay in a conditional survival study.

In the next data set the test system is other FGFRs. Particulars: cited from earlier work.
Data set [2] deals with cancers expressing both wild-type and genetically activated forms of FGFR3. The note with it: Du 2011; cited from earlier work.
Data set [3] can be described thus: Phase 1b/2 study of B-701 and docetaxel in advanced UCC, Cohort 1: safety. Particulars: Cohort 1, n=19, B-701 given with docetaxel.
Protocol: Docetaxel was administered intravenously over approximately 60 minutes at a dosage of 75 mg/m^2. […] Administration was carried out every 3 weeks (q3w). […] The primary objective was to evaluate progression-free survival (PFS) and safety. Secondary objectives included evaluation of overall response rate (ORR), duration of response (DOR), disease control rate (DCR), and overall survival (OS). Each of these objectives was evaluated for correlations with FGFR3 expression and/or FGFR3 mutations/fusions.
Where [4] appears, read: resolved after docetaxel was discontinued.

Consider `CC(=O)O[C@H]1C(=O)[C@@]2(C)[C@H]([C@H](OC(=O)c3ccccc3)[C@]3(O)C[C@H](OC(=O)[C@H](O)[C@@H](NC(=O)c4ccccc4)c4ccccc4)C(C)=C1C3(C)C)[C@]1(OC(C)=O)CO[C@@H]1C[C@@H]2O` [paclitaxel], for which the “survival of tumor bearing UM-UC-1 xenograft mice” value (“survival” for short) in data set [1] is listed as “significantly extended survival”.
As for “B-701: human FGFR3 antagonistic monoclonal antibody MFGR1877S (CAS No. 1312305-12-6), human IgG1 backbone; heavy chain SEQ ID NO:9, light chain SEQ ID NO:10”, in data set [1], the “survival” value was “significantly extended survival”. In addition, in the data set with other FGFRs, the “cross-reactivity with other FGFRs” value is “no cross-reactivity”. In addition, the efficacy entry in data set [2] is recorded as “efficacious”. In data set [3], the “Grade 3 or higher AE related to B-701: Colitis, # of subjects” value was found to be 1 subjects; the “Grade 3 or higher AE related to B-701: Colitis, % of subjects” value is reported as “(5%)”; the “Grade 3 or higher AE related to B-701: DIC, # of subjects” value is reported as 1 subjects; the “Grade 3 or higher AE related to B-701: DIC, % of subjects” value is on record as “(5%)”. In data set [3], the “Grade 3 or higher AE related to B-701: Decreased WBCs, # of subjects” value is listed as 2 subjects; the “Grade 3 or higher AE related to B-701: Decreased WBCs, % of subjects” value is reported as “(11%)”; the “Grade 3 or higher AE related to B-701: Decreased lymphocytes, # of subjects” value was determined as 1 subjects; the “Grade 3 or higher AE related to B-701: Decreased lymphocytes, % of subjects” value was “(5%)”. In data set [3], the “Grade 3 or higher AE related to B-701: Decreased neutrophil count, # of subjects” value is listed as 4 subjects; the “Grade 3 or higher AE related to B-701: Decreased neutrophil count, % of subjects” value is reported as “(21%)”; the “Grade 3 or higher AE related to B-701: Diarrhea, # of subjects” value is 1 subjects; the “Grade 3 or higher AE related to B-701: Diarrhea, % of subjects” value was “(5%)”. Moreover, in data set [3], the “Grade 3 or higher AE related to B-701: Fatigue, # of subjects” value is 1 subjects; the “Grade 3 or higher AE related to B-701: Fatigue, % of subjects” value is on record as “(5%)”; the “Grade 3 or higher AE related to B-701: Hyponatremia, # of subjects” value is 1 subjects; the “Grade 3 or higher AE related to B-701: Hyponatremia, % of subjects” value is listed as “(5%)”. Moreover, in data set [3], the “Grade 3 or higher AE related to B-701: Thrombocytopenia, # of subjects” value is 1 subjects and the “Grade 3 or higher AE related to B-701: Thrombocytopenia, % of subjects” value is given as “(5%)”. Further, in data set [3] (setting [4]), the “Grade 3 or higher AE related to B-701: ALT elevation, # of subjects” value came out at 1 subjects; the “Grade 3 or higher AE related to B-701: ALT elevation, % of subjects” value is recorded as “(5%)”; the “Grade 3 or higher AE related to B-701: AST elevation, # of subjects” value came to 1 subjects; the “Grade 3 or higher AE related to B-701: AST elevation, % of subjects” value is recorded as “(5%)”.
On to `Nc1ccn([C@@H]2O[C@H](CO)[C@@H](O)C2(F)F)c(=O)n1` [gemcitabine], for which the “survival” value in data set [1] was “significantly extended survival”.
